The source of these data is the supplement of paper PMC7125110.

The labels stand for the following.
B1: glmS ribozyme (parent)
chain: AUAAAAGCGCCAGAACUACAGAAAUGUAGUUGACGAGGAGGAGGUUUAUCGAAUUUUCGGCGGAUGCCUCCAAA

± gives the standard error. Variants at the floor of the assay were thinned out. Some results are limits rather than exact numbers.

Variants of B1 are the subject of the data set. Put plainly: self-cleavage kobs at 10000 uM GlcN6P; higher = faster cleavage; RNA array. The note with it: with glucosamine-6-phosphate. The essentials:
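Sequenced MiSeq chips were the platform: E. coli RNA polymerase transcribed barcoded ribozyme variants on them in situ, and a hybridised Cy3 probe tracked these at 37 °C. After glucosamine-6-phosphate (40 μM to 10 mM) in HEPES/KCl/Mg(OAc)2 buffer was flowed in, tiles were imaged over ~14 h. Signals normalised to baseline and to non-cleaving reference variants were reduced to per-tile medians and fit to one- or two-exponential decays to obtain kobs. kcat and KM were derived through weighted Michaelis–Menten fits across concentrations.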
With A28G A52U A53G, the “self-cleavage kobs at 10000 uM GlcN6P” value is 9e-05 ± 1.6e-05 s⁻¹. As to G44U U54C, the “self-cleavage kobs at 10000 uM GlcN6P” value was determined as 0.000226 ± 5e-05 s⁻¹. Under A12G U30G U55G stands 5.43e-05 ± 1.3e-05 s⁻¹; under G29C U69C C71U, 4.54e-05 ± 2.1e-05 s⁻¹; under G29A U31A U45G, 0.000217 ± 4.5e-05 s⁻¹. Under A14G U56C U69C stands 0.000368 ± 9.1e-05 s⁻¹. For U30G U49G G63C, the “self-cleavage kobs at 10000 uM GlcN6P” value is less than 1e-05 s⁻¹. Under G44A A64G stands 3.74e-05 ± 1.4e-05 s⁻¹. In the case of G44U A64C C70U it was less than 1e-05 s⁻¹; in that of A39C G40U G59C C70U, less than 1e-05 s⁻¹. In the case of A12U A14U G29A it was 0.00021 ± 4.5e-05 s⁻¹; in that of A15G U30G U46C, 0.000407 ± 0.0001 s⁻¹; in that of G29A U56G C67A, 0.000277 ± 5.7e-05 s⁻¹. In the case of C8G G43A G44A C67A C70G, the “self-cleavage kobs at 10000 uM GlcN6P” value is less than 1e-05 s⁻¹. Under G38U A52U C58U stands less than 1e-05 s⁻¹. Under G37C U54G stands 3.98e-05 ± 8.6e-06 s⁻¹.

As for C11G G32U G41U G43U A52C C67A U69A, the “self-cleavage kobs at 10000 uM GlcN6P” value is less than 1e-05 s⁻¹. In the case of A12G U65G C70U it was 0.000133 ± 1.7e-05 s⁻¹; in that of C50A U55G U57C, less than 1e-05 s⁻¹. As to A36C U47G U65G, the “self-cleavage kobs at 10000 uM GlcN6P” value is less than 1e-05 s⁻¹.

As for C11U A36C G43U, the “self-cleavage kobs at 10000 uM GlcN6P” value was less than 1e-05 s⁻¹. In the case of C34G G59C C61A A64G it was less than 1e-05 s⁻¹. With G37A G51U C68G, the “self-cleavage kobs at 10000 uM GlcN6P” value was less than 1e-05 s⁻¹.

As to G40C G41U G62A, the “self-cleavage kobs at 10000 uM GlcN6P” value was less than 1e-05 s⁻¹.

On to C16A A36C U57A C61U C67U, for which the “self-cleavage kobs at 10000 uM GlcN6P” value was less than 1e-05 s⁻¹.

For the variant U46A C68A C71A, the “self-cleavage kobs at 10000 uM GlcN6P” value is less than 1e-05 s⁻¹.

On to A39C A42U U46G, for which the “self-cleavage kobs at 10000 uM GlcN6P” value turned out to be 3.93e-05 ± 1.5e-05 s⁻¹. In the case of A36G A64G C70G it was less than 1e-05 s⁻¹; in that of A12C G37A U47G, 0.000241 ± 4.8e-05 s⁻¹; in that of G32U U46A U56G, 3.85e-05 ± 1.2e-05 s⁻¹.

In the case of G38U U49C G63A, the “self-cleavage kobs at 10000 uM GlcN6P” value was less than 1e-05 s⁻¹. In the case of G40A G44U A64C it was less than 1e-05 s⁻¹; in that of C8U U46G G66C C70G, 9.08e-05 ± 2.6e-05 s⁻¹; in that of U49A C50A, less than 1e-05 s⁻¹.

G43U G62A: the “self-cleavage kobs at 10000 uM GlcN6P” value was less than 1e-05 s⁻¹. Under C16A U55A C67G stands 5.54e-05 ± 1.9e-05 s⁻¹; under G29U U55C U57A, 4.36e-05 ± 1.5e-05 s⁻¹. As for A14U A53U C68U, the “self-cleavage kobs at 10000 uM GlcN6P” value was determined as 0.00114 ± 0.00036 s⁻¹.

Regarding G29C U45A C68U, the “self-cleavage kobs at 10000 uM GlcN6P” value amounted to 0.000376 ± 0.00011 s⁻¹. C16U A33G A36C U57G C58G: the “self-cleavage kobs at 10000 uM GlcN6P” value is 7.07e-05 ± 2e-05 s⁻¹.

On to G13C G29U G66A C71U, for which the “self-cleavage kobs at 10000 uM GlcN6P” value worked out at 3.46e-05 ± 1.2e-05 s⁻¹.

In the case of G38U U45A C58A U65C, the “self-cleavage kobs at 10000 uM GlcN6P” value is less than 1e-05 s⁻¹. For U30G G41U G43A A48C C71U, the “self-cleavage kobs at 10000 uM GlcN6P” value is less than 1e-05 s⁻¹. Consider A6U A14G A36U A48U G63U, for which the “self-cleavage kobs at 10000 uM GlcN6P” value was less than 1e-05 s⁻¹. In the case of U56A C67U C71G, the “self-cleavage kobs at 10000 uM GlcN6P” value came out at 5.21e-05 ± 8.7e-06 s⁻¹. In the case of C11U A14C A15U G38U C68G it was 7.05e-05 ± 3e-05 s⁻¹; in that of G9A A12G A36C G38C, less than 1e-05 s⁻¹. In the case of C10G C34G A36G G44A U45G U57C C61A C70A it was less than 1e-05 s⁻¹. U45C U49G: the “self-cleavage kobs at 10000 uM GlcN6P” value amounted to 3.08e-05 ± 1.4e-05 s⁻¹.

As for A12C G66C, the “self-cleavage kobs at 10000 uM GlcN6P” value is 0.000754 ± 0.00033 s⁻¹. In the case of A12G U45A U55A it was 0.00202 ± 0.00039 s⁻¹. With A14U G37A G43C G59C, the “self-cleavage kobs at 10000 uM GlcN6P” value was less than 1e-05 s⁻¹. In the case of A14U C34G C71U it was less than 1e-05 s⁻¹; in that of C11U G66U C71G, less than 1e-05 s⁻¹; in that of C11U G29U C70A, 8.25e-05 ± 2.8e-05 s⁻¹. With G44A U56A A64G, the “self-cleavage kobs at 10000 uM GlcN6P” value was found to be 0.000101 ± 2.4e-05 s⁻¹.

As for C10U C34A G41U, the “self-cleavage kobs at 10000 uM GlcN6P” value is less than 1e-05 s⁻¹. Regarding A15C A33G A48C A64U, the “self-cleavage kobs at 10000 uM GlcN6P” value was less than 1e-05 s⁻¹. In the case of C50U G51U C70U it was less than 1e-05 s⁻¹; in that of G9U G59C G63C, less than 1e-05 s⁻¹; in that of G40A A53G C70A, 0.000157 ± 3.7e-05 s⁻¹.

Turning to G29A A52G C67G, the “self-cleavage kobs at 10000 uM GlcN6P” value was found to be 5.89e-05 ± 1.1e-05 s⁻¹. Regarding G37C A53G U55G, the “self-cleavage kobs at 10000 uM GlcN6P” value came to 3.2e-05 ± 1.4e-05 s⁻¹. As to A15U G37A U47A C67G C70G, the “self-cleavage kobs at 10000 uM GlcN6P” value is less than 1e-05 s⁻¹. As to G13A G44C C67A, the “self-cleavage kobs at 10000 uM GlcN6P” value came to 9.29e-05 ± 1.9e-05 s⁻¹. Take C8A C58U U69G: the “self-cleavage kobs at 10000 uM GlcN6P” value worked out at 0.0005 ± 8.7e-05 s⁻¹. In the case of U31G A33U A53G it was 2.81e-05 ± 1.3e-05 s⁻¹; in that of A14U G40C U56A A64G, 8.64e-05 ± 2.9e-05 s⁻¹. Under C16G G43U C68U stands 0.0002 ± 4.7e-05 s⁻¹; under A39C C50A A53C G66U, less than 1e-05 s⁻¹; under C16A G29A C50A G59A C71U, less than 1e-05 s⁻¹. Regarding A14G A36C A42U, the “self-cleavage kobs at 10000 uM GlcN6P” value is less than 1e-05 s⁻¹.

Consider G13A G35A G60U C70A, for which the “self-cleavage kobs at 10000 uM GlcN6P” value is less than 1e-05 s⁻¹.

Take A15U U49A A52G: the “self-cleavage kobs at 10000 uM GlcN6P” value is less than 1e-05 s⁻¹. In the case of A39C U46A U55A U57A it was less than 1e-05 s⁻¹.

Take C16U G43C A64C C71G: the “self-cleavage kobs at 10000 uM GlcN6P” value is less than 1e-05 s⁻¹.

Regarding A15G U31C G38C G63A, the “self-cleavage kobs at 10000 uM GlcN6P” value is less than 1e-05 s⁻¹. Turning to A14U A15C G32A A42U A53U C70U, the “self-cleavage kobs at 10000 uM GlcN6P” value was less than 1e-05 s⁻¹. For A15C G29C G59A U65A, the “self-cleavage kobs at 10000 uM GlcN6P” value is less than 1e-05 s⁻¹. With G29U A53C G66A, the “self-cleavage kobs at 10000 uM GlcN6P” value was found to be 0.000258 ± 4.6e-05 s⁻¹. In the case of C10U A39C C61U C68G it was less than 1e-05 s⁻¹; in that of A6C G37A C68A, less than 1e-05 s⁻¹.

Take C11G A64C C67G: the “self-cleavage kobs at 10000 uM GlcN6P” value was less than 1e-05 s⁻¹.
